Tested on: Matrin 3 (endogenous, HCT116 nuclear extract) (Homo sapiens (HCT116))
Assay: pull-down + mass spectrometry
Details: rMatrin 3 pulldown: 25 mM Tris-HCl pH 7.5, 150 mM KCl, 0.1% Triton X-100, 100 ug/ml BSA, 2 mM DTT, 5% glycerol, room temperature, 2 hr

Substance: Bi-PINCR (full-length PINCR transcript)
- binding signal (fold over Bi-LUC) (DOXO-treated nuclear extract): 16
- binding signal (fold over Bi-LUC) (untreated nuclear extract): 8

Source: publication PMC5470874
